Results: PMC2702275, “TIPT2 and geminin interact with basal transcription factors to synergize in transcriptional regulation”
Like-named read-outs stand apart in the source and are kept apart here.

Experiments:
[1] = target: GST-TIPT2 (TATA-binding protein-like factor-interacting protein, isoform 2) (mouse) (UniProt Q6P926)
[2] = target: T1, GST-TIPT2 (TIPT isoform 2) (mouse, UniProt Q6P926 1-205); conditions: protein: recombinant, tags: N-terminal GST
T1 sequence: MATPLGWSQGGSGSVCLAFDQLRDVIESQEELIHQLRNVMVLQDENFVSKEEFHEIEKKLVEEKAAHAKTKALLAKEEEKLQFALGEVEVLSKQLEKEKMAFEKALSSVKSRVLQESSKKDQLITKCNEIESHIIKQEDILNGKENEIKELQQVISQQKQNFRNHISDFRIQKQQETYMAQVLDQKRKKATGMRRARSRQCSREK

[3] = target: T2, TBP (human, UniProt P20226 1-339); conditions: protein: recombinant
[4] = target: T1, GST-TIPT2 (TIPT isoform 2); conditions: protein: recombinant; tags: N-terminal GST; label: radiolabel
[5] = target: T2, TBP; conditions: protein: recombinant; label: radiolabel
[6] = target: T1, GST-TIPT2 (TIPT isoform 2); conditions: protein: recombinant; tags: N-terminal GST

T2 sequence (P20226 whole entry, canonical isoform): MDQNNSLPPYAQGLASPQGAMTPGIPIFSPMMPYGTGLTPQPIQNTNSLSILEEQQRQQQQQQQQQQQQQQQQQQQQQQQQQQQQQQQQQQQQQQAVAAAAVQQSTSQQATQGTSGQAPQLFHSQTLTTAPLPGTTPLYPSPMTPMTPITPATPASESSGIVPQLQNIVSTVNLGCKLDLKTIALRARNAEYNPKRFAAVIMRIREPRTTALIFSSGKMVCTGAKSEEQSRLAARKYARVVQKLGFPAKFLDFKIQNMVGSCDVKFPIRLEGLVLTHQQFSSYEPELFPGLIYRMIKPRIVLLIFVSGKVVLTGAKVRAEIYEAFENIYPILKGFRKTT

Molecule “in vitro translated geminin (from UniProt O88513 1-206) (natural protein)” has a luciferase reporter in U2OS cells: activation of the AdMLP, co-transfection of geminin with TIPT2 [1] of 11 fold and a luciferase reporter in U2OS cells: activation of the AdMLP, triple transfection of TBP, TIPT2 and geminin [1] of 16 fold.

B1: AdMLPm9 (dsDNA)
DNA 1: AAGGGGGGCTATAAAAGGGGGTTTT
DNA 2: AAAACCCCCTTTTATAGCCCCCCTT
B1: binds [2].

B2: AdE4 (dsDNA)
DNA 1: GATCCGGAGTATATATAGGACCTTG
DNA 2: CAAGGTCCTATATATACTCCGGATC
B2: binds ([3]; label: radiolabel); no binding [4].

B3: AdMLPm7 (dsDNA)
DNA 1: AAGGGGGGCTATAAAAGGTTGTGGG
DNA 2: CCCACAACCTTTTATAGCCCCCCTT
B3: binds [2].

B4: AdMLPm6 (dsDNA)
DNA 1: AAGGGGGGCTATAAAATTGGGTGGG
DNA 2: CCCACCCAATTTTATAGCCCCCCTT
B4: binds [2].

B5: AdMLPm4 (dsDNA)
DNA 1: AAGGGGTTCTATAAAAGGGGGTGGG
DNA 2: CCCACCCCCTTTTATAGAACCCCTT
B5: binds [2].

B6: AdMLPm1 (dsDNA)
DNA 1: AAGGGGGGCTGTAAAAGGGGGTGGG
DNA 2: CCCACCCCCTTTTACAGCCCCCCTT
B6: binds ([2]; label: radiolabel); no binding [5].

B7: AdMLPm5 (dsDNA)
DNA 1: AAGGGGGGTGATAAAAGGGGGTGGG
DNA 2: CCCACCCCCTTTTATCACCCCCCTT
B7: binds [6].

B8: AdMLPm2 (dsDNA)
DNA 1: AATTGGGGCTATAAAAGGGGGTGGG
DNA 2: CCCACCCCCTTTTATAGCCCCAATT
B8: binds [2].

B9: AdMLP (-40 to -16) (dsDNA)
DNA 1: AAGGGGGGCTATAAAAGGGGGTGGG
DNA 2: CCCACCCCCTTTTATAGCCCCCCTT
B9: binds [2]; binds [3].

B10: AdMLPm8 (dsDNA)
DNA 1: AAGGGGGGCTATAAAAGGGGTGGGG
DNA 2: CCCCACCCCTTTTATAGCCCCCCTT
B10: binds [2].
